Measurements published in patent US20060084135.

Molecular target: T1, p53-382 acetylated peptide (Fluor de Lys-SIRT1), RHKK(Ac)
T1 chain: RHKK

B1: recombinant human SIRT1 (protein)
chain: MADEAALALQPGGSPSAAGADREAASSPAGEPLRKRPRRDGPGLERSPGEPGGAAPEREVPAAARGCPGAAAAALWREAEAEAAAAGGEQEAQATAAAGEGDNGPGLQGPSREPPLADNLYDEDDDDEGEEEEEAAAAAIGYRDNLLFGDEIITNGFHSCESDEEDRASHASSSDWTPRPRIGPYTFVQQHLMIGTDPRTILKDLLPETIPPPELDDMTLWQIVINILSEPPKRKKRKDINTIEDAVKLLQECKKIIVLTGAGVSVSCGIPDFRSRDGIYARLAVDFPDLPDPQAMFDIEYFRKDPRPFFKFAKEIYPGQFQPSLCHKFIALSDKEGKLLRNYTQNIDTLEQVAGIQRIIQCHGSFATASCLICKYKVDCEAVRGDIFNQVVPRCPRCPADEPLAIMKPEIVFFGENLPEQFHRAMKYDKDEVDLLIVIGSSLKVRPVALIPSSIPHEVPQILINREPLPHLHFDVELLGDCDVIINELCHRLGGEYAKLCCNPVKLSEITEKPPRTQKELAYLSELPPTPLHVSEDSSSPERTSPPDSSVIVTLLDQAAKSNDDLDVSESKGCMEEKPQEVQTSRNVESIAEQMENPDLKNVGSSTGEKNERTSVAGTVRKCWPNRVAKEQISRRLDGNQYLFLPPNRYIFHGAEVYSDSEDDVLSSSSCGSNSDSGTCQSPSLEEPMEDESEIEEFYNGLEDEPDVPERAGGAGFGTDGDDQEAINEAISVKQEVTDMNYPSNKS
B1 was tested, and the “Km (+100 µM resveratrol), SIRT1 initial rate vs p53-382 acetylated peptide concentration at 3 mM NAD+” value was “Km(+resveratrol, Δ)=1.8 µM”, the “Km (control), SIRT1 initial rate vs p53-382 acetylated peptide concentration at 3 mM NAD+” value was “Km(control, ▪)=64 µM” and the “fold decrease of the acetylated peptide Km with 100 µM resveratrol” value was “Its effect on the acetylated peptide Km was particularly striking, amounting to a 35-fold decrease”.
